Test results published in publication PMC12732657.

What was measured:
[1] = target: Bovine pancreatic β-trypsin (bovine)
[2] = target: Bovine pancreatic β-trypsin (bovine); test: ITC; CVTI (200 µM) injected in 2.02 µL steps into 170 µL cell with bovine trypsin (20 µM); 50 mM Tris pH 7.8, 150 mM NaCl; Nano ITC

- Vmax of caseinolysis by trypsin (5 µM) in the presence of CVTI (15 µM); 20.23 µM/min without CVTI [1]: 16.7 µM/min
- Ka [2]: 513000 M⁻¹
- Kd [2]: 1.95 µM
- dH [2]: 76.8 kcal/mol
- stoichiometry N [2]: 1.1
Substance: Cleome viscosa trypsin inhibitor (natural protein)
